Reference: patent publication US6773918B2, “Detection of phenols using engineered bacteria” (The Regents of the University of California, priority 1999, dated 2004)
Substitutions are numbered along the chain they refer to.

How the values were obtained:
[1] = system: Pdmp-lacZ reporter fusion; assay: Liquid β-galactosidase assay, test strain AW101 (Pdmp-lacZ fusion) carrying pAW50 dmpR derivatives, exposed to phenols; type: cell-based, E. coli
From the text: Reference will now be made in detail to the present preferred embodiments of the present invention, examples of which are shown in the accompanying drawings. Turning now to FIG. 1, the dmpR wt-N gene (See, e.g., Shingler and Moore, supra) carried on plasmid pAW50 served as the template for amplification of the dpmR sensor domain by mutagenic polymerase chain reaction (PCR). The products resulting from the mutagenic PCR were digested using Ndel and SacII and ligated back into a pAW50 plasmid fragment, from which the wild type Ndel-SacII region had been removed. […] Ligation products were electroporated into AW101 (trp::Pdmp-lacZ fusion). Transformants were initially selected for tetracycline resistance and then replicated onto plates containing X-gal and one of the test phenols. Colonies that developed more blue color than colonies containing wild type DmpR were selected for further analysis with liquid β-galactosidase assays. β-galactosidase activity is proportional to transcription of the Pdmp-lacZ reporter fusion and is, therefore, a measure of particular variant DmpR's ability to detect phenol or specific substituted phenols. This mutagenic procedure led to the identification of more than twenty DmpR derivatives with altered response to phenols. Five of these derivatives are representative of proteins which show significant promise as effective detectors of phenols listed as primary pollutants by the U.S. Environment Protection Agency.
AW101 was used as a test strain to identify and characterize changes in DmpR's sensing capacity subsequent to sensor domain mutagenesis. pAW50 derivatives were electroporated into AW101 and transformants were selected on Luria-Bertani (Difco, Detroit, Mich.) plates containing 10.5 μg/ml tetracycline. Transformants were then replica-plated onto M9 minimal medium (10) plates containing 0.2% glucose, 30 μg/ml tryptophan, 1 μg/ml thiamine, 10.5 μg/ml tetracycline, 0.25% 5-bromo-4-chloro-3-indoyl-β-D-galactoside (X-Gal), and either no inducer (NI) or 0.05 mM of a phenol derivative. Cells that formed blue colonies on plates containing a phenol derivative were subject to liquid β-galactosidase assays.
D. β-Galactosidase Assays. Overnight cultures of AW101 carrying pAW50 derivatives were diluted 1000-fold into Luria-Bertani broth containing 10.5 μg/ml tetracycline. When cells reached an OD595 nm between 0.60 and 0.90 as measured on a Lambda Bio uv/vis spectrophotometer (Perkin Elmer Corp. Analytical Instruments, Norwalk, Conn.), 500 μL samples were pelleted and immediately resuspended in 500 μL spent Luria-Bertani broth containing the appropriate phenol compound. […] Samples were pelleted and frozen at −70° C. for assay the following day.
Liquid β-galactosidase assays were performed using a modification of Miller's assay (Miller, J. H., 1972. “Experiments in Molecular Genetics,” Cold Spring Harbor Laboratory, Cold Spring Harbor, N.Y.). Cell sample pellets were thawed and resuspended in Z buffer. The optical density at 595 nm of each cell suspension was read in a microtiter plate using an automated microplate reader (BIO-TEK Instruments, Inc., Winooski, Vt.). Following the addition of 15 μL 0.1% sodium dodecyl sulfate and 25 μL HCCl3, the remaining cell suspension was vortexed for 30 s to lyse cells. The reaction was begun with the addition of 50 μL o-nitrophenyl-β-D-galactopyranoside (2.5 mg/ml) to the lysed cells. Reactions were incubated at 26° C. until stopped with the addition of 50 μL 1M Na2CO3. Color development of the reactions was read at OD415 on the microplate reader. Arbitrary units for graphing purposes were calculated as (1000×OD415)/(time)(OD595) where time is the reaction time in minutes. Equivalent cell volumes were read for both optical densities.

[2] = system: Pdmp-lacZ reporter fusion; assay: β-galactosidase detection of phenols in contaminated soil by the bacterial test strain; type: cell-based, E. coli
From the text: FIG. 5a compares the detection of 2,4-dichlorophenol by DmpR-B9 (SEQ ID No. 1 hereof) with that for unsubstituted phenol shown in FIG. 5b in contaminated soil, unsubstituted phenol being a natural effector of wild type DmpR. Detection of chemicals in contaminated soil is often difficult because soil may bind the phenols, making them less available to the test bacteria. […] The response of DmpR-B9 to 4 parts per million (ppm) 2,4-dichlorophenol in soil is six-fold higher than that of wild type DmpR. DmpR-B9′s response to 2.5 ppm phenol is four-fold better than that of wild type.

B1: DmpR-B21: engineered DmpR derivative with mutated sensor domain (SEQ ID No. 3 and No. 9) (protein)
chain: MPIKYKPEIQHSDFKDLTNLIHFQSMEGKIWLGEQRMLLLQFSAMASFRREMVNTLGIERAKGLFLRHGYQSGLKDAELARKLRPNASEVGMFLAGPQMHSLKGLVKVRPTGLDIDKEYGRFYAEMEWIDWFEVEICQTDLGQMQDPVCWTVLGYACAYSSAFMGREIIFKEVSCRGCGG
[1]; 0.0025 mM solution of 2-chlorophenol (0.3 parts per million)
  increase in β-galactosidase activity: 60 fold
[1]; 2,4-dichlorophenol at 0.025 mM (4 parts per million)
  response (β-galactosidase activity): elicits a response

B2: DmpR-B17#2: engineered DmpR derivative with mutated sensor domain (SEQ ID No. 2) (protein)
chain: B1 chain with G112E
[1]; 2,4-dichlorophenol
  response to low concentrations of phenol: responds to low concentrations
[1]; 2-nitrophenol
  response to low concentrations of phenol: responds to low concentrations
[1]; 4-nitrophenol
  response to low concentrations of phenol: responds to low concentrations
[1]; six concentrations of 4-chloro-3-methylphenol
  detection compared with wild type protein: significantly better detectors

B3: DmpR-D9: engineered DmpR derivative with mutated sensor domain (SEQ ID No. 6) (protein)
chain: B1 chain with G112E, D116G, K117R, F163L
[1]; 2-chlorophenol
  response relative to wild type protein: nineteen

B4: DmpR-B23: engineered DmpR derivative with mutated sensor domain (SEQ ID No. 4) (protein)
chain: B1 chain with Q10R, G112E, K117M
[1]; 0.5 ppm 2-chlorophenol, four-hour exposure
  response relative to wild type DmpR: more than 20 fold
[1]; low concentrations of 2-chlorophenol
  effect of four-hour exposure on detection signal (β-galactosidase activity units): increases the detection signal
[1]; six concentrations of 2-chlorophenol, 60 minute exposure
  detection compared with wild type protein: significantly better detectors

B5: DmpR-D12: engineered DmpR derivative with mutated sensor domain (SEQ ID No. 7) (protein)
chain: B1 chain with G112E, L141P
[1]; 3 ppm 2,4-dichlorophenol
  detection relative to wild type DmpR: 10 fold
[1]; 10 ppm 4-chloro-3-methylphenol
  detection relative to wild type DmpR: eight

B6: DmpR-B31: engineered DmpR derivative with mutated sensor domain (SEQ ID No. 5) (protein)
chain: B1 chain with I58V, A61T, G112E, D146G
[1]; 2,4-dichlorophenol, 2,4-dimethylphenol, 4-nitrophenol (FIG. 6a)
  response to most substituted phenols: strong response
[1]; no inducer (no phenol)
  uninduced (NI) value: relatively high

B7: DmpR-B9: engineered DmpR derivative with mutated sensor domain (SEQ ID No. 1) (protein)
chain: B1 chain with K4E, F42S, G112E
[2]; 2.5 ppm phenol in soil
  response relative to wild type: four
[2]; 4 parts per million (ppm) 2,4-dichlorophenol in soil
  response relative to wild type DmpR: six
[2]; contaminated soil
  capacity to detect phenols in soil compared with wild type protein: significantly better
